Blank lines part the entries; values can stand above or below the binder they belong to.
Columns and labels:
[1] = biological target: T1, AK155 receptor complex (α-subunit CPNM1 / IL-20Rα and β-subunit IL-10Rβ), endogenous on cell lines (UniProt Q9UHF4 30-553; Q08334 20-325, limits assumed); test: cell-based or functional assay
T1 sequence (looked up) 1: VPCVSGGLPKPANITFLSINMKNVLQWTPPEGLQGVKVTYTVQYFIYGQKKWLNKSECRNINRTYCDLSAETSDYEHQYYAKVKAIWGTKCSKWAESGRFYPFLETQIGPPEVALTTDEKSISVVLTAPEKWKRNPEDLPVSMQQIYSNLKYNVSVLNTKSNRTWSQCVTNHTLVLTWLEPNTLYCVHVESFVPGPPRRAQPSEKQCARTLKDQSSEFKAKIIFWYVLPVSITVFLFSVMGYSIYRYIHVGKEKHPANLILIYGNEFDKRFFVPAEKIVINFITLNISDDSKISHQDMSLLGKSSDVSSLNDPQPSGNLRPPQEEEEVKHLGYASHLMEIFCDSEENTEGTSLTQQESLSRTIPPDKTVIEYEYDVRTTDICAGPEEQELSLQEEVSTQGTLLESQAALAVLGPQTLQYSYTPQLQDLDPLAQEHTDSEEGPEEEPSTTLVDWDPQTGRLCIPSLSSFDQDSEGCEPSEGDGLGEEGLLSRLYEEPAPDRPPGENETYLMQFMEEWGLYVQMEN
T1 sequence (looked up) 2: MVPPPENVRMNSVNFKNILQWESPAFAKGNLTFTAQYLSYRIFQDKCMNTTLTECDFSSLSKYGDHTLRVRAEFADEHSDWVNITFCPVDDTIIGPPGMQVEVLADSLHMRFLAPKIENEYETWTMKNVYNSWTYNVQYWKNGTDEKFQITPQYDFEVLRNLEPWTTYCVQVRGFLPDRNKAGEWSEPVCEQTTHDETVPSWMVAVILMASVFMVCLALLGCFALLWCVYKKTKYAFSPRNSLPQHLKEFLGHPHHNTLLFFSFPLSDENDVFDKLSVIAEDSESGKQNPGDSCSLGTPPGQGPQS

[2] = biological target: the molecule itself; test: SDS-PAGE and western blot of COS-7 cell extracts with and without denaturation (about 36 kDa against about 19 kDa)
Excerpt: Further evidence for the dimeric state of AK155 was provided by analysis of AK155 extracted from mammalian cells. AK155 was cloned and expressed using the eukaryotic expression vector pME18S in COS-7 cells, where the protein was cloned with a FLAG sequence. The cells were extracted and the extracted protein was loaded as is, or heated with reductant, prior to loading on the electrophoresis gel. AK155 was not purified prior to analysis by SDS PAGE. Detection was by rabbit antiserum prepared against AK155 or by anti-FLAG monoclonal antibody.

- fold increase of IL-8 concentration, HaCaT cells, with against without AK155 [1]: 5 fold
B1: AK155 (preparation not stated) (ligand)
chain: KHKQSSFTKSCYPRGTLSQAVDALYIKAAWLKATIPEDRIKNIRLLKKKTKKQFMKNCQFQEQLLSFFMEDVFGQLQLQGCKKIRFVEDFHSLRQKLSHCISCASSAREMKSITRMKRIFYRIGNKGIYKAISELDILLSWIKKLLESSQ

B2: AK155 cloned with a FLAG sequence, expressed in COS-7 cells from pME18S (ligand, not shown: small tags and cut ends)
chain: B1 chain
notes: Analysed unpurified in COS-7 cell extracts; also called FLAG-tagged AK155
- binding result [2]: binds

— patent US20030073199A1 (SCHERING, published 2003)
